# ± gives the uncertainty stated by the source.
# Assay: self-splicing fitness, log relative to wild type (ln ratio); higher = more splicing; Tetrahymena group I intron in knt gene, E. coli kanamycin selection, DiMSum; sequences stand for … in CUCUCU…GGAGGGAAAAGUUAUCAGGCAUGCACCUGGUAGCUAGUCUUUAAACCAAUAGAUUGCAUCGGUUUAAAAGGCAAGACCGUCAAAUUGCGGGAAAGGGGUCAACAGCCGUUCAGUACCAAGUCUCAGGGGAAACUUUGAGAUGGCCUUGCAAAGGGUAUGGUAAUAAGCUGACGGACAUGGUCCUAACCACGCAGCCAAGUCCUAAGUCAACAGAUCUUCUGUUGAUAUGGAUGCAGUUCACAGACUAAAUGUCGGUCGGGGAAGAUGUAUUCUUCUCAUAAGAUAUAGUCGGACCUCUCCUUAAUGGGAGCUAGCGGAUGAAGUGAUGCAACACUGGAGCCGCUGGGAACUAAUUUGUAUGCGAAAGUAUAUUGAUUAGUUUUGGAGUACUCGUGGUCG
# How it was run: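 A randomised library covering all eight P1ex-region intron nucleotides was built with the intron in the knt kanamycin-resistance gene on pET-22b(+) and held in E. coli BL21(DE3). Cells were grown overnight at 37°C or 30°C on LB agar, with or without 25 μg/mL kanamycin, plus 100 μg/mL carbenicillin, 50 μM IPTG and 0.2% rhamnose, and pooled colonies were amplicon-sequenced on an Illumina HiSeq 2500. DiMSum fitness is the error-weighted combination of wild-type-normalised replicate fold changes, kanamycin versus none.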
Sequence,self-splicing fitness (ln) (30 °C),self-splicing fitness (ln) (37 °C)
GAGCAGCAAUAUUACGGGCU,-3.92 ± 0.28,-2.55 ± 0.34
GAGCAGCAAUAUUACGGUAG,-4.29 ± 0.2,-3.24 ± 0.24
GAGCAGCAAUAUUACGGUCU,-0.727 ± 0.12,-0.857 ± 0.14
GAGCAGCAAUAUUACGUACG,-3.24 ± 0.21,-1.38 ± 0.17
GAGCAGCAAUAUUACGUACU,-0.0719 ± 0.068,-0.502 ± 0.085
GAGCAGCAAUAUUACGUGUA,-2 ± 0.12,-0.876 ± 0.094
GAGCAGCAAUAUUACGUUGA,-2.38 ± 0.17,-1.32 ± 0.13
GAGGAGCAAUAUUACGAAAG,,-2.01 ± 0.33
GAGGAGCAAUAUUACGAAGC,-1.73 ± 0.32,-2.22 ± 0.4
GAGGAGCAAUAUUACGAAUU,-3.43 ± 0.3,
GAGGAGCAAUAUUACGACGC,-0.403 ± 0.15,0.209 ± 0.14
GAGGAGCAAUAUUACGAUCG,-2.15 ± 0.22,-1.2 ± 0.32
GAGGAGCAAUAUUACGCAAC,-2.75 ± 0.38,
GAGGAGCAAUAUUACGCAGU,-2.89 ± 0.28,-3.66 ± 0.42
GAGGAGCAAUAUUACGCGGG,-2.11 ± 0.31,-2.66 ± 0.34
GAGGAGCAAUAUUACGCUCU,-2.18 ± 0.42,-1.73 ± 0.47
GAGGAGCAAUAUUACGCUUA,-1.5 ± 0.16,-1.42 ± 0.21
GAGGAGCAAUAUUACGGAGC,,-0.748 ± 0.26
GAGGAGCAAUAUUACGGCAU,,-1.87 ± 0.46
GAGGAGCAAUAUUACGGCCC,-0.89 ± 0.29,-0.616 ± 0.49
GAGGAGCAAUAUUACGGCGU,-1.72 ± 0.16,-0.0856 ± 0.14
GAGGAGCAAUAUUACGGGCU,-2.72 ± 0.48,-1.83 ± 0.29
GAGGAGCAAUAUUACGGUCG,-1.43 ± 0.14,-2.19 ± 0.29

Sequence,self-splicing fitness (ln) (30 °C),self-splicing fitness (ln) (37 °C)
GAGGAGCAAUAUUACGGUUG,-3.94 ± 0.23,-2.17 ± 0.2
GAGGAGCAAUAUUACGUAGA,-4 ± 0.24,-2.22 ± 0.19
GAGGAGCAAUAUUACGUCAU,-2.41 ± 0.39,-2.26 ± 0.4
GAGGAGCAAUAUUACGUGUA,,-3.62 ± 0.35
GAGGAGCAAUAUUACGUUAC,-3.66 ± 0.25,-3.09 ± 0.4
GAGUAGCAAUAUUACGAAAC,-2.82 ± 0.32,-2.56 ± 0.27
GAGUAGCAAUAUUACGAACG,-2.36 ± 0.48,
GAGUAGCAAUAUUACGAAUU,-2.14 ± 0.22,-1.36 ± 0.17
GAGUAGCAAUAUUACGACUG,0.34 ± 0.24,-0.96 ± 0.21
GAGUAGCAAUAUUACGAGAU,-4.02 ± 0.29,-2.51 ± 0.28
GAGUAGCAAUAUUACGAUAU,-2.42 ± 0.1,-1.51 ± 0.14
GAGUAGCAAUAUUACGCACC,-0.317 ± 0.25,-1.31 ± 0.24
GAGUAGCAAUAUUACGCGGC,,-1.74 ± 0.45
GAGUAGCAAUAUUACGGCCC,-0.847 ± 0.18,0.0966 ± 0.35
GAGUAGCAAUAUUACGGCGA,-0.645 ± 0.16,-0.441 ± 0.2
GAGUAGCAAUAUUACGGCUC,-2.59 ± 0.37,-2.51 ± 0.48
GAGUAGCAAUAUUACGGGAC,-3.17 ± 0.35,-1.41 ± 0.22
GAGUAGCAAUAUUACGGGGG,,-3.08 ± 0.35
GAGUAGCAAUAUUACGGUCG,-1.15 ± 0.16,-0.697 ± 0.19
GAGUAGCAAUAUUACGUCCC,-0.805 ± 0.21,-0.255 ± 0.23
GAGUAGCAAUAUUACGUUGC,-3.27 ± 0.23,-1.79 ± 0.27
GAUAAGCAAUAUUACGACCA,-1.18 ± 0.14,-0.0759 ± 0.21
